Assay results published in US20070036811A1 (KRAEFTENS BEKAEMPELSE, published 2007).

B1: ML-IAP98 (PLTAEVPPEL) (peptide)
peptide: PLTAEVPPEL
notes: Synthetic peptide bought from Research Genetics, >80% purity
B2: ML-IAP230 (VLEPPGARDV) (peptide)
peptide: VLEPPGARDV
notes: as for B1
B3: ML-IAP83 (GMGSEELRL) (peptide)
peptide: GMGSEELRL
notes: as for B1
B4: ML-IAP34 (SLGSPVLGL) (peptide)
peptide: SLGSPVLGL
notes: as for B1
B5: ML-IAP280 (QLCPICRAPV) (peptide)
peptide: QLCPICRAPV
notes: as for B1
B6: ML-IAP90 (RLASFYDWPL) (peptide)
peptide: RLASFYDWPL
notes: as for B1
B7: ML-IAP54 (QILGQLRPL) (peptide)
peptide: QILGQLRPL
notes: as for B1
B8: ML-IAP245 (RLQEERTCKV) (peptide)
peptide: RLQEERTCKV
notes: as for B1
B9: ML-IAP154 (LLRSKGRDFV) (peptide)
peptide: LLRSKGRDFV
notes: as for B1
B10: ML-IAP99 (LTAEVPPEL) (peptide)
peptide: LTAEVPPEL
notes: as for B1

molecular target: HLA-A2 (human); experiment: assembly assay, T2 cells, [35S]-labelled class I MHC, immunoprecipitation and IEF

| Binder | C50 (peptide concentration for half maximal binding) [µM] |
| --- | --- |
| B1 | > 100 |
| B2 | > 100 |
| B3 | 30 |
| B4 | 1 |
| B5 | 20 |
| B6 | 0.2 |
| B7 | 1 |
| B8 | 1 |
| B9 | 10 |
| B10 | 0.9 |
